Laboratory results from paper PMC5732302 (2017).

Molecular target: dynein (Saccharomyces cerevisiae, UniProt P36022)
Sequence (P36022 whole entry): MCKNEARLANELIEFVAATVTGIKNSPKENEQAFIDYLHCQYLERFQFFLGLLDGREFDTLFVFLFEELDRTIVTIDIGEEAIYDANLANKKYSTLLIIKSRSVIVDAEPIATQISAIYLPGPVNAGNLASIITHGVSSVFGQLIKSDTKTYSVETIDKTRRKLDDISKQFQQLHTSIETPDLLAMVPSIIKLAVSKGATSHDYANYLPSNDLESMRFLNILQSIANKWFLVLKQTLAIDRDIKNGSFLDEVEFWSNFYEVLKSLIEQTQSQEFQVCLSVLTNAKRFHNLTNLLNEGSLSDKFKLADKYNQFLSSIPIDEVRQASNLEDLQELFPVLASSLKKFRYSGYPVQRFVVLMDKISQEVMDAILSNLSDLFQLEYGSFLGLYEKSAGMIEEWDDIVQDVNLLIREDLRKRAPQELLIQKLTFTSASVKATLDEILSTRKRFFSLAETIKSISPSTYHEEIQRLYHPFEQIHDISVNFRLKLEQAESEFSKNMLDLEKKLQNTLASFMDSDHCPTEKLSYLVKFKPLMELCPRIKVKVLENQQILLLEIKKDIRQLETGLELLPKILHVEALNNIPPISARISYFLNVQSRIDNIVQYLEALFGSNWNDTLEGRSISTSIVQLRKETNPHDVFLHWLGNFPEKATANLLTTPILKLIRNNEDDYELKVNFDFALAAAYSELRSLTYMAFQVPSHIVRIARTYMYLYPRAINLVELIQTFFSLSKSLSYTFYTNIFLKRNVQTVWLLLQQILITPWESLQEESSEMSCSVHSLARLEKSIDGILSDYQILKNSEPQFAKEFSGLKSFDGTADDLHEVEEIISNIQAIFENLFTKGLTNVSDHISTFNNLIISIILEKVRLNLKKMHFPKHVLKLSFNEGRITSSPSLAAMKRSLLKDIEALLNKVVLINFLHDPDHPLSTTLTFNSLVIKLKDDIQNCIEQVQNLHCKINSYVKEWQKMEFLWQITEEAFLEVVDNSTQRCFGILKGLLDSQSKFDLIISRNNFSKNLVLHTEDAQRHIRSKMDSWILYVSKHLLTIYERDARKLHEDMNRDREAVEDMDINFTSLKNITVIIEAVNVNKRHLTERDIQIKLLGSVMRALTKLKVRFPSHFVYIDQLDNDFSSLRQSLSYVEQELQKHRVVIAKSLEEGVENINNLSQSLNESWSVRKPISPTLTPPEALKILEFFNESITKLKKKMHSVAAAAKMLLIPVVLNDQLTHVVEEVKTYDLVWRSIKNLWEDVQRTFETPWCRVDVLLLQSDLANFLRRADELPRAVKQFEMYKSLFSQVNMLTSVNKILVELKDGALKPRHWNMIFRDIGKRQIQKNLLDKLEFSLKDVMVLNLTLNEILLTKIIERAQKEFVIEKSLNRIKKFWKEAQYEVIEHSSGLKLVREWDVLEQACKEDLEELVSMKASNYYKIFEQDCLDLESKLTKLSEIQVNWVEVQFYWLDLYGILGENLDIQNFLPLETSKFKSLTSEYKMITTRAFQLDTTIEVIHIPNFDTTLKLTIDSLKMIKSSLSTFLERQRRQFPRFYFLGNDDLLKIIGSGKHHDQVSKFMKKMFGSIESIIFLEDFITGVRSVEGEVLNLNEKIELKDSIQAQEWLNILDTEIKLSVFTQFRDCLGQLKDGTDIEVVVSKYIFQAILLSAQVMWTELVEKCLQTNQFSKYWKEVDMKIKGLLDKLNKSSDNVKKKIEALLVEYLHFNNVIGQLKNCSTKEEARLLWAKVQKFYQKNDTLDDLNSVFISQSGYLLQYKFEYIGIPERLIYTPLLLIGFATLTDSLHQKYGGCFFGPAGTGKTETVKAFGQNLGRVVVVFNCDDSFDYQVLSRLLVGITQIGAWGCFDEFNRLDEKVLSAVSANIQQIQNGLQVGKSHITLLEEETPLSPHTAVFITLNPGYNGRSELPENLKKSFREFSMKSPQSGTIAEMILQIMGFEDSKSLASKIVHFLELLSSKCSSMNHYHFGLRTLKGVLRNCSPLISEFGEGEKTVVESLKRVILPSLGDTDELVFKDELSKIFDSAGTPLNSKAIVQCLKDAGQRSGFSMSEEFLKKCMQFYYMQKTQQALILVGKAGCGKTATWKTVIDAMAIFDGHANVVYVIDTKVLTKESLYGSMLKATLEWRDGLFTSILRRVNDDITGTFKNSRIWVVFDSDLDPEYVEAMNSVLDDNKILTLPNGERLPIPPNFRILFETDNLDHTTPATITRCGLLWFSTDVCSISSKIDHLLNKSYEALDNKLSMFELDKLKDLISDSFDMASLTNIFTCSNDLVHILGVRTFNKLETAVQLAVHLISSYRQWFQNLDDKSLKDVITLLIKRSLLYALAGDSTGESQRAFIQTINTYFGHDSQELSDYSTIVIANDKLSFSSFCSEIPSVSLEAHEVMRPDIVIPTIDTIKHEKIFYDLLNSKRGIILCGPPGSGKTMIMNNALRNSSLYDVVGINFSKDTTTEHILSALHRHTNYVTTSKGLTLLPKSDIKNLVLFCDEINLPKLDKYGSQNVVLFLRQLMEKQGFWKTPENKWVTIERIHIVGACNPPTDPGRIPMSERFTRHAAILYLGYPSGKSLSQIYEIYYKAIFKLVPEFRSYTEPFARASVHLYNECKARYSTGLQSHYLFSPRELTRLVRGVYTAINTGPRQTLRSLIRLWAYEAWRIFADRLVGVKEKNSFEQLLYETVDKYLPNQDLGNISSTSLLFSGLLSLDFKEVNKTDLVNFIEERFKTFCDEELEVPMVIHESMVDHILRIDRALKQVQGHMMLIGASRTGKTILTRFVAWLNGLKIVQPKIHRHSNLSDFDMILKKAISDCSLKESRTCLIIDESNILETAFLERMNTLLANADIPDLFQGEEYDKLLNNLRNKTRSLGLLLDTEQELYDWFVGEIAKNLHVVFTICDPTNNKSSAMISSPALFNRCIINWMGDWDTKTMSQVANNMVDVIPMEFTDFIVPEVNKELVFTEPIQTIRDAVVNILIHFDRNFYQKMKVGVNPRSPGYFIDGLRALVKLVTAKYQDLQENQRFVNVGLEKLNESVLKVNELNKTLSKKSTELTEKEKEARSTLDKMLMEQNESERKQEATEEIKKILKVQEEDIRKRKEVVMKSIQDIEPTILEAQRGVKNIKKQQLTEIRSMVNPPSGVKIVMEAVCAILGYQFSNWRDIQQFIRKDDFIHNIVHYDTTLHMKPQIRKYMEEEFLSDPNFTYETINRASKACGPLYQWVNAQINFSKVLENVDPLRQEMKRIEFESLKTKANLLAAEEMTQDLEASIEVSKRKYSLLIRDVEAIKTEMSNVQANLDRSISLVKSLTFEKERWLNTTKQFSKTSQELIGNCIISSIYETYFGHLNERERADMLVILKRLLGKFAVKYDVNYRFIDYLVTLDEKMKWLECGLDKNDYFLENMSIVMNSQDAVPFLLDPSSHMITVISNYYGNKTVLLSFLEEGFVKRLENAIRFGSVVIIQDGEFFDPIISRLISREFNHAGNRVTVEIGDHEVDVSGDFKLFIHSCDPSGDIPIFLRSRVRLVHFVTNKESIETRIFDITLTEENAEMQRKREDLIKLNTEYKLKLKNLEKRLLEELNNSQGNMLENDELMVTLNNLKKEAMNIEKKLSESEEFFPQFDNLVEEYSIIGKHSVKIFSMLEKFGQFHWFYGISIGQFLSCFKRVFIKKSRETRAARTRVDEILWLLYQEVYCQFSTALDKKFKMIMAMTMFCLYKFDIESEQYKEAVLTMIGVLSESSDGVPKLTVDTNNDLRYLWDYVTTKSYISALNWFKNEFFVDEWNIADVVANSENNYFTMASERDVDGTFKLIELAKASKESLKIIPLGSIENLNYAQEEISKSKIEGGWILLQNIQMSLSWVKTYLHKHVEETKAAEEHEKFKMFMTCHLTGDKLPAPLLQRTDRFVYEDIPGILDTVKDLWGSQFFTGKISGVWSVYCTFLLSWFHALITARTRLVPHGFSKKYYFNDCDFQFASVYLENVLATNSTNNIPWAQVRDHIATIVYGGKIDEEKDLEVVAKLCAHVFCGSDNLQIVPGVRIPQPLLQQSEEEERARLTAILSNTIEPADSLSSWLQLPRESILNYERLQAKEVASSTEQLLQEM

Kd: < 0.2 nM
B1: She1 (protein)
chain: MNDKLQEEHNEKDTTSQINGFTPPHMSIDFHSNNNSNIIETIGVSKRLGNSVLSELDSRASSKFEFLKDQSEQQYNGDKNNEPKSGSYNINEFFQAKHDSQFGQMESLDTHYTLLHTPKRKSQHAIPQDRSDSMKRSRPSRSIPYTTPVVNDITRRIRRLKLRNSLVNGNDIVARARSMQANSNINSIKNTPLSKPKPFMHKPNFLMPTTNSLNKINSAHRNTSSSSTASSIPRSKVHRSISIRDLHAKTKPVERTPVAQGTNSQLKNSVSVFDRLYKQTTFSRSTSMNNLSSGTSAKSKEHTNVKTRLVKSKTSGSLSSNLKQSTATGTKSDRPIWR
